Patent US20250186541A1, “DLL3 TARGETING PEPTIDES AND CONSTRUCTS THEREOF” (MARIANA ONCOLOGY INC., priority 2023, published 2025)
Numbered stars: 1 amine (or outer) side, 2 acyl side, 3 side chain; on linkers, the order of the positions; unused ones are H or OH. Bridge positions count the residues as written; N and C are the ends. Square brackets hold non-standard residues; d marks the D form. * marks the point of attachment. 5,5‑diMe‑P = 5,5-dimethyl-L-proline, CC1(C)CC[C@@H](C(=O)[*:2])N1[*:1]; DOTA = O=C(O)CN1CCN(CC(=O)O)CCN(CC(=O)*)CCN(CC(=O)O)CC1; Pro(4,4-F2) = O=C(O)[C@@H]1CC(F)(F)CN1; cisHyp = O=C(O)[C@@H]1C[C@H](O)CN1; hPhe = N[C@@H](CCc1ccccc1)C(=O)O; αMeP = C[C@@]1(C(=O)O)CCCN1; NMeA = CN[C@@H](C)C(=O)O; dNMeA = CN[C@H](C)C(=O)O; Aze = O=C(O)[C@@H]1CCN1; Ahx = NCCCCCC(=O)O

T1: Biotinylated human DLL3 (human, UniProt Q9NYJ7 27-492, biotinylated (site not stated))
T1 construct: also called Delta-like ligand 3; Delta Like Canonical Notch Ligand 3
T1 sequence (looked up): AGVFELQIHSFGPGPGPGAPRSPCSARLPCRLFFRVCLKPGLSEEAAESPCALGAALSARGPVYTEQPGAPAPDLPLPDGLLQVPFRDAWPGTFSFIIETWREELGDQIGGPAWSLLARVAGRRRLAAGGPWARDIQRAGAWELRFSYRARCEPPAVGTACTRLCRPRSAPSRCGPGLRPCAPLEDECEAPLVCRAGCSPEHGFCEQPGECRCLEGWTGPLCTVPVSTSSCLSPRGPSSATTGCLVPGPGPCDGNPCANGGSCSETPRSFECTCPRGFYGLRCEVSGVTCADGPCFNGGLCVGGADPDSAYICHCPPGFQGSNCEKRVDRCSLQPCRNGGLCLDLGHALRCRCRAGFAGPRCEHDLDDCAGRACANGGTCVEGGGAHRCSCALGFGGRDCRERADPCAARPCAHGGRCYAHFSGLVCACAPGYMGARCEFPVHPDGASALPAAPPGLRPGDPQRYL


Target: T1, Biotinylated human DLL3
Assay: SPR, biotin-hDLL3 on SA chip

| Kd [nM] | binding result | Binder |
| --- | --- | --- |
| 4.94 |  | Ac-MSDCWLQWNC[dNMeA]FD[dK](DOTA)-NH2 (disulfide 4-10; SMILES CSCC[C@H](NC(C)=O)C(=O)N[C@@H](CO)C(=O)N[C@@H](CC(=O)O)C(=O)N[C@H]1CSSC[C@@H](C(=O)N(C)[C@H](C)C(=O)N[C@@H](Cc2ccccc2)C(=O)N[C@@H](CC(=O)O)C(=O)N[C@H](CCCCNC(=O)CN2CCN(CC(=O)O)CCN(CC(=O)O)CCN(CC(=O)O)CC2)C(N)=O)NC(=O)[C@H](CC(N)=O)NC(=O)[C@H](Cc2c[nH]c3ccccc23)NC(=O)[C@H](CCC(N)=O)NC(=O)[C@H](CC(C)C)NC(=O)[C@H](Cc2c[nH]c3ccccc23)NC1=O) [Cpd #50] |
| 17 |  | Ac-MSDCWLQWNC[Pro(4,4-F2)]FD[dK](DOTA)-NH2 (disulfide 4-10) [Cpd #52] |
| 29 |  | Ac-[dK]SDCWLQWNCPFD[dK](DOTA)-NH2 (disulfide 4-10) [Cpd #84] |
| 32 |  | Ac-KSDCWLQWNCPFD[dK](DOTA)-NH2 (disulfide 4-10) [Cpd #83] |
|  | no binding | Ac-MSDCWLQWNCAFD-NH2 (disulfide 4-10; SMILES CSCC[C@H](NC(C)=O)C(=O)N[C@@H](CO)C(=O)N[C@@H](CC(=O)O)C(=O)N[C@H]1CSSC[C@@H](C(=O)N[C@@H](C)C(=O)N[C@@H](Cc2ccccc2)C(=O)N[C@@H](CC(=O)O)C(N)=O)NC(=O)[C@H](CC(N)=O)NC(=O)[C@H](Cc2c[nH]c3ccccc23)NC(=O)[C@H](CCC(N)=O)NC(=O)[C@H](CC(C)C)NC(=O)[C@H](Cc2c[nH]c3ccccc23)NC1=O) [Cpd #27] |
|  | no binding | Ac-MSDCWLQWNCPFA-NH2 (disulfide 4-10; SMILES CSCC[C@H](NC(C)=O)C(=O)N[C@@H](CO)C(=O)N[C@@H](CC(=O)O)C(=O)N[C@H]1CSSC[C@@H](C(=O)N2CCC[C@H]2C(=O)N[C@@H](Cc2ccccc2)C(=O)N[C@@H](C)C(N)=O)NC(=O)[C@H](CC(N)=O)NC(=O)[C@H](Cc2c[nH]c3ccccc23)NC(=O)[C@H](CCC(N)=O)NC(=O)[C@H](CC(C)C)NC(=O)[C@H](Cc2c[nH]c3ccccc23)NC1=O) [Cpd #29] |
|  | no binding | Ac-MSDCWLQWNCPAD-NH2 (disulfide 4-10; SMILES CSCC[C@H](NC(C)=O)C(=O)N[C@@H](CO)C(=O)N[C@@H](CC(=O)O)C(=O)N[C@H]1CSSC[C@@H](C(=O)N2CCC[C@H]2C(=O)N[C@@H](C)C(=O)N[C@@H](CC(=O)O)C(N)=O)NC(=O)[C@H](CC(N)=O)NC(=O)[C@H](Cc2c[nH]c3ccccc23)NC(=O)[C@H](CCC(N)=O)NC(=O)[C@H](CC(C)C)NC(=O)[C@H](Cc2c[nH]c3ccccc23)NC1=O) [Cpd #28] |
|  | no binding | Ac-MSDCALQWNCPFD-NH2 (disulfide 4-10; SMILES CSCC[C@H](NC(C)=O)C(=O)N[C@@H](CO)C(=O)N[C@@H](CC(=O)O)C(=O)N[C@H]1CSSC[C@@H](C(=O)N2CCC[C@H]2C(=O)N[C@@H](Cc2ccccc2)C(=O)N[C@@H](CC(=O)O)C(N)=O)NC(=O)[C@H](CC(N)=O)NC(=O)[C@H](Cc2c[nH]c3ccccc23)NC(=O)[C@H](CCC(N)=O)NC(=O)[C@H](CC(C)C)NC(=O)[C@H](C)NC1=O) [Cpd #22] |
| 19.6 |  | Ac-MSDCWLQWNC[NMeA]FD[dK](DOTA)-NH2 (disulfide 4-10; SMILES CSCC[C@H](NC(C)=O)C(=O)N[C@@H](CO)C(=O)N[C@@H](CC(=O)O)C(=O)N[C@H]1CSSC[C@@H](C(=O)N(C)[C@@H](C)C(=O)N[C@@H](Cc2ccccc2)C(=O)N[C@@H](CC(=O)O)C(=O)N[C@H](CCCCNC(=O)CN2CCN(CC(=O)O)CCN(CC(=O)O)CCN(CC(=O)O)CC2)C(N)=O)NC(=O)[C@H](CC(N)=O)NC(=O)[C@H](Cc2c[nH]c3ccccc23)NC(=O)[C@H](CCC(N)=O)NC(=O)[C@H](CC(C)C)NC(=O)[C@H](Cc2c[nH]c3ccccc23)NC1=O) [Cpd #49] |
| 2.6 |  | Ac-MSDCWLQWNC[αMeP]FD[dK](DOTA)-NH2 (disulfide 4-10) [Cpd #51] |
| 64 |  | Ac-MSDCWLQWNC[Aze]FD[dK](DOTA)-NH2 (disulfide 4-10) [Cpd #48] |

The remaining lines, values behind:

| Binder | Kd [nM] | binding result |
| --- | --- | --- |
| Ac-MSDCWLQWNC[5,5‑diMe‑P]FD[dK](DOTA)-NH2 (disulfide 4-10; SMILES CSCC[C@H](NC(C)=O)C(=O)N[C@@H](CO)C(=O)N[C@@H](CC(=O)O)C(=O)N[C@H]1CSSC[C@@H](C(=O)N2[C@H](C(=O)N[C@@H](Cc3ccccc3)C(=O)N[C@@H](CC(=O)O)C(=O)N[C@H](CCCCNC(=O)CN3CCN(CC(=O)O)CCN(CC(=O)O)CCN(CC(=O)O)CC3)C(N)=O)CCC2(C)C)NC(=O)[C@H](CC(N)=O)NC(=O)[C@H](Cc2c[nH]c3ccccc23)NC(=O)[C@H](CCC(N)=O)NC(=O)[C@H](CC(C)C)NC(=O)[C@H](Cc2c[nH]c3ccccc23)NC1=O) [Cpd #46] | 12 |  |
| {DOTA}-[Ahx]SDCWLQWNCP[hPhe]D-NH2 (disulfide 4-10; SMILES CC(C)C[C@@H]1NC(=O)[C@H](Cc2c[nH]c3ccccc23)NC(=O)[C@@H](NC(=O)[C@H](CC(=O)O)NC(=O)[C@H](CO)NC(=O)CCCCCNC(=O)CN2CCN(CC(=O)O)CCN(CC(=O)O)CCN(CC(=O)O)CC2)CSSC[C@@H](C(=O)N2CCC[C@H]2C(=O)N[C@@H](CCc2ccccc2)C(=O)N[C@@H](CC(=O)O)C(N)=O)NC(=O)[C@H](CC(N)=O)NC(=O)[C@H](Cc2c[nH]c3ccccc23)NC(=O)[C@H](CCC(N)=O)NC1=O) [Cpd #41] | 83 |  |
| Ac-MSDCWLQWNCPFD[dK](DOTA)-NH2 (disulfide 4-10) [Cpd #30] | 8.6 |  |
| Ac-MS[dA]CWLQWNCPFD-NH2 (disulfide 4-10; SMILES CSCC[C@H](NC(C)=O)C(=O)N[C@@H](CO)C(=O)N[C@H](C)C(=O)N[C@H]1CSSC[C@@H](C(=O)N2CCC[C@H]2C(=O)N[C@@H](Cc2ccccc2)C(=O)N[C@@H](CC(=O)O)C(N)=O)NC(=O)[C@H](CC(N)=O)NC(=O)[C@H](Cc2c[nH]c3ccccc23)NC(=O)[C@H](CCC(N)=O)NC(=O)[C@H](CC(C)C)NC(=O)[C@H](Cc2c[nH]c3ccccc23)NC1=O) [Cpd #10] | 116 |  |
| Ac-ASDCWLQWNCPFD-NH2 (disulfide 4-10; SMILES CC(=O)N[C@@H](C)C(=O)N[C@@H](CO)C(=O)N[C@@H](CC(=O)O)C(=O)N[C@H]1CSSC[C@@H](C(=O)N2CCC[C@H]2C(=O)N[C@@H](Cc2ccccc2)C(=O)N[C@@H](CC(=O)O)C(N)=O)NC(=O)[C@H](CC(N)=O)NC(=O)[C@H](Cc2c[nH]c3ccccc23)NC(=O)[C@H](CCC(N)=O)NC(=O)[C@H](CC(C)C)NC(=O)[C@H](Cc2c[nH]c3ccccc23)NC1=O) [Cpd #19] | 21 |  |
| Ac-MSDCWLAWNCPFD-NH2 (disulfide 4-10; SMILES CSCC[C@H](NC(C)=O)C(=O)N[C@@H](CO)C(=O)N[C@@H](CC(=O)O)C(=O)N[C@H]1CSSC[C@@H](C(=O)N2CCC[C@H]2C(=O)N[C@@H](Cc2ccccc2)C(=O)N[C@@H](CC(=O)O)C(N)=O)NC(=O)[C@H](CC(N)=O)NC(=O)[C@H](Cc2c[nH]c3ccccc23)NC(=O)[C@H](C)NC(=O)[C@H](CC(C)C)NC(=O)[C@H](Cc2c[nH]c3ccccc23)NC1=O) [Cpd #24] | 4.9 |  |
| Ac-MSDCW[dA]QWNCPFD-NH2 (disulfide 4-10; SMILES CSCC[C@H](NC(C)=O)C(=O)N[C@@H](CO)C(=O)N[C@@H](CC(=O)O)C(=O)N[C@H]1CSSC[C@@H](C(=O)N2CCC[C@H]2C(=O)N[C@@H](Cc2ccccc2)C(=O)N[C@@H](CC(=O)O)C(N)=O)NC(=O)[C@H](CC(N)=O)NC(=O)[C@H](Cc2c[nH]c3ccccc23)NC(=O)[C@H](CCC(N)=O)NC(=O)[C@@H](C)NC(=O)[C@H](Cc2c[nH]c3ccccc23)NC1=O) [Cpd #12] | 63 |  |
| Ac-MSACWLQWNCPFD-NH2 (disulfide 4-10; SMILES CSCC[C@H](NC(C)=O)C(=O)N[C@@H](CO)C(=O)N[C@@H](C)C(=O)N[C@H]1CSSC[C@@H](C(=O)N2CCC[C@H]2C(=O)N[C@@H](Cc2ccccc2)C(=O)N[C@@H](CC(=O)O)C(N)=O)NC(=O)[C@H](CC(N)=O)NC(=O)[C@H](Cc2c[nH]c3ccccc23)NC(=O)[C@H](CCC(N)=O)NC(=O)[C@H](CC(C)C)NC(=O)[C@H](Cc2c[nH]c3ccccc23)NC1=O) [Cpd #21] | 80 |  |
| Ac-MSDCWLQWNC[cisHyp]FD[dK](DOTA)-NH2 (disulfide 4-10) [Cpd #45] | 40.6 |  |
| Ac-SDCWLQWNCPFD[dK](DOTA)-NH2 (disulfide 3-9) [Cpd #31] | 25.5 |  |
